From article PMC11165477

Tests used:
[1] = molecular target: Ma1α-neoGreen, expressed in Xenopus laevis oocytes (apple (Malus domestica)); experiment: single-molecule photobleaching step counting (TIRF); Ma1α-neoGreen alone in X. laevis oocytes, 16-24 h after cRNA injection, vitelline membrane removed, ND96 solution
[2] = molecular target: Ma1α-neoGreen, expressed in Xenopus laevis oocytes (apple (Malus domestica)); experiment: single-molecule photobleaching step counting (TIRF); competition: Ma1α-neoGreen in X. laevis oocytes co-injected with 25% or 50% of the total cRNA as untagged Ma1β

percent of fluorescent spots with two discrete bleaching steps [1] [%] | stoichiometry N [1] | percent Ma1α-neoGreen dimer population (two bleaching steps) with 25% of the total cRNA as untagged Ma1β [2] [%] | percent Ma1α-neoGreen dimer population (two bleaching steps) with 50% of the total cRNA as untagged Ma1β [2] [%] | Substance
72 | 2 | – | – | Ma1α-neoGreen, expressed in Xenopus laevis oocytes (natural protein)
– | – | 38 | 30 | Ma1β, untagged, expressed in Xenopus laevis oocytes (natural protein)
